The source of these data is PMC8834548, “Epiregulin as an Alternative Ligand for Leptin Receptor Alleviates Glucose Intolerance without Change in Obesity” (Cells, 2022).

Assay [1] concerns the target leptin receptor (LepR), endogenous in mouse adipose tissue (mouse (endogenous in Lep^ob adipose tissue)) (UniProt P48356).
Assay [2] has as its target mouse recombinant leptin receptor (LepR) protein (mouse) (UniProt P48356). The assay is described as follows: quartz crystal microbalance with dissipation (QCM-D); LepR (1.6 pM in PBS) laid as a monolayer on a gold quartz sensor, then mouse leptin or mouse EREG (1.6 fM) added; PBS pH 7.1-7.5, 25 C, flow 50 uL/min; frequency, dissipation and modelled film thickness.
In assay [3] the target is T1, mouse recombinant leptin receptor (LepR) protein (mouse, UniProt P48356 22-839).
T1 construct: leptin receptor, mouse, recombinant, R&D systems 497-LR/CF; also called recombinant LepR; source: bought: R&D systems, 497-LR/CF
T1 sequence (looked up): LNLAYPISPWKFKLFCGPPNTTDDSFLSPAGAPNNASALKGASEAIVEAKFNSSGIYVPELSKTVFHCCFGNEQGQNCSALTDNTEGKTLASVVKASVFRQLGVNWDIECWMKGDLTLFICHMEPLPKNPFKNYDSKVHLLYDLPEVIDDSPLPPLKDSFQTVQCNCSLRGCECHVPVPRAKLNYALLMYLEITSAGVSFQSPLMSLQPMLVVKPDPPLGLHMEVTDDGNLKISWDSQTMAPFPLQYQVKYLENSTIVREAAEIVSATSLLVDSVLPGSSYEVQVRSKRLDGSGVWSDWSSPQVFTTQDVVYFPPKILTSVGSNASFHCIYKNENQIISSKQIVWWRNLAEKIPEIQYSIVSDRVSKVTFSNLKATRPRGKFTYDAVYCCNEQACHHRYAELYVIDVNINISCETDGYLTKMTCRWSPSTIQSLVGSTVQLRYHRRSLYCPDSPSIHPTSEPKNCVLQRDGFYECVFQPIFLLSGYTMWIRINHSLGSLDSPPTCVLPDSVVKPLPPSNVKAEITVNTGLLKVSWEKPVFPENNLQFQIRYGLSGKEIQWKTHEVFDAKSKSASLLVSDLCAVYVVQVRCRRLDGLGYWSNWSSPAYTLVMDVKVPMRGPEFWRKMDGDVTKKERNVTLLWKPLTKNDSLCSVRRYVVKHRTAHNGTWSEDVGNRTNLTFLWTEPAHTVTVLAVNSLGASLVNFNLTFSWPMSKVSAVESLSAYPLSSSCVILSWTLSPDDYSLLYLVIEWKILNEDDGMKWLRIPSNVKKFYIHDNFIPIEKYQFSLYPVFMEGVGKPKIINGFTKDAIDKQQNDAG
Described as above. As to conditions: both partners purified.

In turn, mouse recombinant EREG (ligand) gave an FD-glucose uptake in 3T3-L1 preadipocytes against the concentration of mouse EREG in assay [1] of 26 nM. In assay [2], the thickness of the LepR film after EREG was added (23 nm before) is 20 nm.

B1: mouse leptin (ligand, UniProt P41160 22-167, looked up)
chain: VPIQKVQDDTKTLIKTIVTRINDISHTQSVSAKQRVTGLDFIPGLHPILSLSKMDQTLAVYQQVLTSLPSQNVLQIANDLENLRDLLHLLAFSKSCSLPQTSGLQKPESLDGVLEASLYSTEVVALSRLQGSLQDILQQLDVSPEC
notes: leptin, mouse, Crystal Chem 90030-B; source: bought: Crystal Chem, 90030-B
For the molecule B1, the binding result in assay [3] is recorded as “binds”.
